# Data: US10227617B2, “Sequestration of carbon dioxide with hydrogen to useful products” (UNIVERSITY OF GEORGIA RESEARCH FOUNDATION, INC., priority 2012, dated 2019)
# “Also recorded” adds a separate entry of the source.
# B1: Msed_1353-G424: single substitution mutant (Trp424 to Gly) of acetate/propionate synthetase Msed_1353, SEQ ID NO:18 (protein, listed as Metallosphaera sedula)
# chain: MSQPENESGLPFQEKVVPELLKHRLVTPEEYLRIHKKTVENYQEYWESVAKELDWFKPWEKALDDSHPPFYKWFVGGELNASYLAVDRHANSWRRNKVAIIWEGEPWENGPKEVRKLTYLDLYREVNRAAYLLKEVYGLKKGDTIGIYLPMIPELPIFMLAAARLGVAFTVVFSGFSAQAVADRMNDADTKLLITADGGWRRGKVIPLKEIVDKALETATTVKNVLVVRRTGTEISMKPGRDAYLHDVMSKVPIKAYVEPERVKSEDPLYILYTSGTTGKPKGIIHDTGGYMTLLHNTMKLVFDIRDTDVFWCTADIGWVTGHSYIVFGPLQEGATEVMYEGALDFPEPDRWVSIIERHQVSILYTSPTAIRTFMKQGEQWIKKHDVSSVRLMHSVGEPINPEAWRWFHKLVGRGQVPFGSTWGMTETGGIMISHMPGGYLVPMKPGTNGPPLLGIETNVFDEEGKPMPEEQKGYLVITKPWPGMPLTINKDPERYVKVYWNKFPNVFYAGDYAIKDRDGYFWILGRADEVMKIAGHRIGTYELESALVQHPAIAEAAVVGVPDPVRGEVAEAFVILRSGVEPSAKLREEIVKFVRENFGPIAVFREIHFVSKLPKTRSGKIMRRVIKAVATNSPVGDVTTLEDEASVEEVKKAFQELKEQVGK
# B2: Msed_0394: recombinant M. sedula enzyme with 4-hydroxybutyrate:CoA ligase activity, annotated AMP-dependent synthetase and ligase, SEQ ID NO:13 (protein, listed as Metallosphaera sedula)
# chain: MGGFKIPNYEGVDPTGSWYSVLTPLLFLERAGKYFKDKTAVVYRDSRYTYSTFYDNVMVQASALMRRGFSREDKLSFISRNRPEFLESFFGVPYAGGVLVPINFRLSPKEMAYIINHSDSKFVVVDEPYLNSLLEVKDQIKAEIILLEDPDNPSASETARKEVRMTYRELVKGGSRDPLPIPAKEEYSMITLYYTSGTTGLPKGVMHHHRGAFLNAMAEVLEHQMDLNSVYLWTLPMFHAASWGFSWATVAVGATNVCLDKVDYPLIYRLVEKERVTHMCAAPTVYVNLADYMKRNNLKFSNRVHMLVAGAAPAPATLKAMQEIGGYMCHVYGLTETYGPHSICEWRREWDSLPLEEQAKLKARQGIPYVSFEMDVFDANGKPVPWDGKTIGEVVMRGHNVALGYYKNPEKTAESFRDGWFHSGDAAVVHPDGYIEIVDRFKDLINTGGEKVSSILVEKTLMEIPGVKAVAVYGTPDEKWGEVVTARIELQEGVKLTEEEVIKFCKERLAHFECPKIVEFGPIPMTATGKMQKYVLRNEAKAKANKEKS
# B3: E9: M. sedula succinate semialdehyde reductase, SEQ ID NO:12, in extracts of strain MW43 (protein, listed as Metallosphaera sedula)
# chain: MKAAVLHTYKEPLSIEDVNISQPKAGEVKIKVKATGLCHSDVNVFEGKTPVPPPVVAGHEISGIVEEVGPGVTRVKPGDRVISAFIHPCGKCGNCVAGKENLCETFSQVRLKGVMPDGTSRLSKDGKEIRTFLGGGFAEYAIVGENALTRVPEDMDLEKVAVLGCAGLTGYGAISSSKIEPGDTVAVIGVGGVGLSTIQLLRASGAGRIIAVGTKKWKLDRAMELGATDVVNSKEIDPVKAIKEITGGGPQVVIEAGGNEDTIHMALDSVRIGGKVVLVGLPPATAMIPIRVASIVRGGIEVVGNYGGRPRVDMPKLLELVRQGRYDPSRLVTGRFRLEEINEAVKMLEEGEAIRSLIIP
# Key:
# P. furiosus cultures = experiment: Stability of 3-HP added to P. furiosus cultures; assay type: cell-based, Pyrococcus furiosus
# [1] = CoA synthetase assay (DTNB), substrate propionate; assay type: biochemical; conditions: saturating substrate concentrations
# Experimental: (§2) Two assays were used to measure ligase activity, one spectrophotometric and one using high-performance liquid chromatography (HPLC). A discontinuous assay was used to measure substrate-dependent disappearance of CoA at 75° C. The reaction mixture (600 μl) contained 100 mM MOPS-KOH (pH 7.9), 5 mM MgCl2, 2.5 mM ATP, 0.15 mM CoA, and purified enzyme. At each time point, 80 μl of reaction mixture was added to 80 μl cold 5,5′-dithiobis-(2-nitrobenzoic acid) (DTNB). A time point (0 min) was taken before heating. The reaction mixture was incubated for 2 min at 75° C., followed by addition of substrate. Additional time points were taken at 30, 60, 90, 120, and 180 sec after addition of substrate. Absorbance was measured at 412 nm to determine free CoA concentration, based on the concentration of 2-nitro-5-thiobenzoate dianion (NTB^2−) (ε412=14,150 M^−1 cm^−1) (Hawkins et al., 2011, ACS Catal. 1, 1043-1050, Riddles et al., 1983, Methods in Enzymology 91, 49-60). Enzymes were kinetically characterized by varying the concentration of the acyl-CoA substrate from 0.05 mM to 12 mM, while the other substrate concentrations were held constant. Measurements for specific activity were taken under saturating substrate concentrations (10 mM). Formation of the CoA ester was also confirmed using HPLC (Waters). […]
# [2] = CoA synthetase (acyl-CoA ligase) assay, disappearance of CoA (DTNB), substrate acetate; assay type: biochemical; conditions: saturating substrate concentrations
# Experimental: as §2
# [3] = Ligase activity over a range of short-chain linear organic acids; assay type: biochemical
# Experimental: (§1) Two assays were used to measure ligase activity, one spectrophotometric and one using high-performance liquid chromatography (HPLC). A discontinuous assay was used to measure substrate-dependent disappearance of CoA at 75° C. The reaction mixture (600 μl) contained 100 mM MOPS-KOH (pH 7.9), 5 mM MgCl2, 2.5 mM ATP, 0.15 mM CoA, and purified enzyme. At each time point, 80 μl of reaction mixture was added to 80 μl cold 5,5′-dithiobis-(2-nitrobenzoic acid) (DTNB). A time point (0 min) was taken before heating. The reaction mixture was incubated for 2 min at 75° C., followed by addition of substrate. Additional time points were taken at 30, 60, 90, 120, and 180 sec after addition of substrate. Absorbance was measured at 412 nm to determine free CoA concentration, based on the concentration of 2-nitro-5-thiobenzoate dianion (NTB^2−) (ε412=14,150 M^−1 cm^−1) (Hawkins et al., 2011, ACS Catal. 1, 1043-1050, Riddles et al., 1983, Methods in Enzymology 91, 49-60). Enzymes were kinetically characterized by varying the concentration of the […] substrate from 0.05 mM to 12 mM, while the other substrate concentrations were held constant. Measurements for specific activity were taken under saturating substrate concentrations (10 mM). Formation of the CoA ester was also confirmed using HPLC (Waters). […]
# [4] = 4-hydroxybutyrate-CoA synthetase assay (DTNB; HPLC confirmation); assay type: biochemical
# Experimental: A time point (0 min) was taken before heating.
# The soluble, heat-treated lysate was loaded onto the column with binding buffer (50 mM sodium phosphate, 300 mM NaCl, 20 mM imidazole, pH 7.4) and the his-tagged enzyme removed with elution buffer (50 mM sodium phosphate, 300 mM NaCl, 500 mM imidazole, pH 7.4).
# [5] = CoA synthetase assay, substrate hexanoic acid; assay type: biochemical; conditions: six carbon hexanoic acid
# Experimental: as §1
# E9 = molecular target: T1, E9 (Metallosphaera sedula, UniProt A4YGN0); experiment: NADPH-dependent assay for E9 in cell-free extracts; assay type: biochemical
# T1 construct: expressed in transfected cells; host or cells: Pyrococcus furiosus strain MW43 (SP2B operon integrated at genome region 2); cell-free extract
# T1 sequence (A4YGN0 1-360): B3 chain
# Experimental: NADPH-dependent assay for E9 of the SP2B subpathway (FIG. 36). Assays were carried out in sealed anaerobic cuvettes at 75° C. containing 100 mM MOPS pH 7.5 (measured at room temperature), 5 mM MgCl2, 5 mM DTT, 1 mM NADPH and the cell-free extract of P. furiosus (0.25 mg/ml). After addition of 1 mM succinic semialdehyde, NADPH oxidation was determined by the absorbance at 340 nm and rates were calculated based on the difference before and after the addition of the succinic semialdehyde.
molecule,measurement,setting,value
"O=C(O)CCO [3-HP, 3-hydroxypropionic acid]",stability when added to P. furiosus cultures,P. furiosus cultures,stable
B1,specific activity,[1],3.5 µmol/min/mg
same,specific activity,[2],3.6 µmol/min/mg
same,substrates on which activity was shown,[3],"activity on C4-C8 substrates; also recorded: activity on 3HP, 4HB, valerate, hexanoate, and even octanoate"
same,decrease of activity of mutant versus native enzyme,[3]; on acetate and propionate,60%
same,specific activity,"[4]; 4HB, saturating substrate concentrations",1.8 µmol/min/mg
B2,production of 4HB-CoA from 4HB and CoA,[4]; reversed-phase HPLC,confirmed
same,rate of ligation of CoA to 4HB,[4]; substrate 4HB,0.22 µmol·min/mg
same,activity with hexanoic acid,[5],No activity
B3,half-life of E9,"E9; at 90° C, cell-free extracts",~30 min
same,assay temperature of maximum E9 activity,E9; cell extracts,above 80 °C
